{"source": "patent US6927039B2", "about": "“Enzymatic process” (Nanobiodesign Limited, priority 2000, dated 2005)", "proteins": {"B1": {"name": "cytochrome P450 BM3 (Priestia megaterium NBRC 15308 = ATCC 14581) (protein)", "chain": "MTIKEMPQPKTFGELKNLPLLNTDKPVQALMKIADELGEIFKFEAPGRVTRYLSSQRLIKEACDESRFDKNLSQALKFVRDFAGDGLFTSWTHEKNWKKAHNILLPSFSQQAMKGYHAMMVDIAVQLVQKWERLNADEHIEVPEDMTRLTLDTIGLCGFNYRFNSFYRDQPHPFITSMVRALDEAMNKLQRANPDDPAYDENKRQFQEDIKVMNDLVDKIIADRKASGEQSDDLLTHMLNGKDPETGEPLDDENIRYQIITFLIAGHETTSGLLSFALYFLVKNPHVLQKAAEEAARVLVDPVPSYKQVKQLKYVGMVLNEALRLWPTAPAFSLYAKEDTVLGGEYPLEKGDELMVLIPQLHRDKTIWGDDVEEFRPERFENPSAIPQHAFKPFGNGQRACIGQQFALHEATLVLGMMLKHFDFEDHTNYELDIKETLTLKPEGFVVKAKSKKIPLGGIPSPSTEQSAKKVRKKAENAHNTPLLVLYGSNMGTAEGTARDLADIAMSKGFAPQVATLDSHAGNLPREGAVLIVTASYNGHPPDNAKQFVDWLDQASADEVKGVRYSVFGCGDKNWATTYQKVPAFIDETLAAKGAENIADRGEADASDDFEGTYEEWREHMWSDVAAYFNLDIENSEDNKSTLSLQFVDSAADMPLAKMHGAFSTNVVASKELQQPGSARSTRHLEIELPKEASYQEGDHLGVIPRNYEGIVNRVTARFGLDASQQIRLEAEEEKLAHLPLAKTVSVEELLQYVELQDPVTRTQLRAMAAKTVCPPHKVELEALLEKQAYKEQVLAKRLTMLELLEKYPACEMKFSEFIALLPSIRPRYYSISSSPRVDEKQASITVSVVSGEAWSGYGEYKGIASNYLAELQEGDTITCFISTPQSEFTLPKDPETPLIMVGPGTGVAPFRGFVQARKQLKEQGQSLGEAHLYFGCRSPHEDYLYQEELENAQSEGIITLHTAFSRMPNQPKTYVQHVMEQDGKKLIELLDQGAHFYICGDGSQMAPAVEATLMKSYADVHQVSEADARLWLQQLEEKGRYAKDVWAG", "notes": "expressed in transfected cells; host or cells: E. coli BL21(DE3) transformed with pT7Bm3Z"}}, "assay_in_all_cases": "Substrate-dependent NADPH consumption assay at 340 nm, purified enzyme (in vitro)", "type_in_all_cases": "biochemical, Bacillus megaterium", "conditions_in_all_cases": "other: purified enzyme, NADPH 130-150 μM, 20° C., pH 8.0", "key": {"[1]": {"substrate": "CCCCC/C=C\\C/C=C\\C/C=C\\C/C=C\\CCCC(=O)O", "experimental": "(§1) NADPH consumption was followed at 340 nm using a Δε340=6.22 mM^−1·cm^−1. Both assays were performed at 20° C. using P450 BM3 in 100 mM potassium phosphate buffer, pH 8.0. Reaction was initiated by addition to the substrate bound enzyme of NADPH to a final concentration of 130-150 μM. In the kinetics assay the rate constant kcat was calculated from the linear part of the decrease in A340 with time, which lasted at least for the first 4 sec. The enzyme concentration typically varied between 0.4 and 0.8 μM in the binding assay and between 8 and 25 nM in the catalytic assay. Substrate stock solutions were freshly prepared the day of the assay. Fatty acid stock solutions were in 50 mM potassium carbonate, SDS was easily dissolved in water, while TCE stock solutions were prepared in ethanol. If appropriate, stocks of candidate agents may be prepared in, for example, N,N-dimethylformamide just before the assay. […] The confidence interval for Kd given in the results section is the mean±the standard deviation of at least four measurements, as calculated using the software Kaleidagraph. Similarly kcat was calculated by fitting data points to the Michaelis-Menten equation. Each data point is the mean of at least four measurements."}, "[2]": {"substrate": "CCCCCCCCCCCC(=O)O", "experimental": "as §1"}, "[3]": {"substrate": "CCCCCCCCCCCCOS(=O)(=O)[O-].[Na+]", "experimental": "as §1"}, "[4]": {"substrate": "ClC(Cl)C(Cl)Cl", "experimental": "as §1"}}}
{"protein": "B1", "values": [{"measurement": "Km", "setting": "[1]", "result": "0.37 ± 0.07", "unit": "µM"}, {"measurement": "kcat", "setting": "[1]", "result": "3570 ± 88", "unit": "mole NADPH/min/mole P450"}, {"measurement": "Km", "setting": "[2]", "result": "67.8 ± 14.5", "unit": "µM"}, {"measurement": "kcat", "setting": "[2]", "result": "1928 ± 114", "unit": "mole NADPH/min/mole P450"}, {"measurement": "Km", "setting": "[3]", "result": "0.51 ± 0.12", "unit": "µM"}, {"measurement": "kcat", "setting": "[3]", "result": "2605 ± 61", "unit": "mole NADPH/min/mole P450"}, {"measurement": "Km", "setting": "[4]", "result": "7960 ± 2041", "unit": "µM"}, {"measurement": "kcat", "setting": "[4]", "result": "5133.5 ± 641.3", "unit": "mole NADPH/min/mole P450"}]}
